In publication PMC9927946:
pKd: −log10 of the molar value.

Target: 2P-IRS-1 (bisphosphorylated IRS-1 peptide), labeled with Cy5
Experiment: MST; Monolith NT.115; 100 nM Cy5-labeled 2P-IRS-1, unlabeled protein serially diluted; 25 °C; n=3

Substance	pKd
NEDD8-SHP2 conjugation (SHP2 neddylated in the in vitro neddylation assay) (from UniProt Q06124 1-593; Q15843 1-76) (complex)	< 3.00
SHP2 WT recombinant protein (Src homology region 2-containing protein tyrosine phosphatase 2) (from UniProt Q06124 1-593) (enzyme)	3.33
